The text below walks through data of article PMC9045721, “Cryo-EM structure of the EBV ribonucleotide reductase BORF2 and mechanism of APOBEC3B inhibition” (Science Advances, 2022).

Changes are numbered by the printed parent chain. Numbers in names are those of the source.

The chains are these.
B1: A3Bctd (193-382)-mycHis (domain or fragment)
chain: not shown
notes: APOBEC3B (A3B) C-terminal catalytic domain (ctd), residues 193-382; wild-type constructs match GenBank NM_004900; also called A3Bctd-mycHis; A3B-mycHis; not shown: myc, C-terminal, kept; His, C-terminal, kept
B2: MBP-BORF2 (1 to 826) (enzyme)
chain: MATTSHVEHELLSKLIDELKVKANSDPEADVLAGRLLHRLKAESVTHTVAEYLEVFSDKFYDEEFFQMHRDELETRVSAFAQSPAYERIVSSGYLSALRYYDTYLYVGRSGKQESVQHFYMRLAGFCASTTCLYAGLRAALQRARPEIESDMEVFDYYFEHLTSQTVCCSTPFMRFAGVENSTLASCILTTPDLSSEWDVTQALYRHLGRYLFQRAGVGVGVTGAGQDGKHISLLMRMINSHVEYHNYGCKRPVSVAAYMEPWHSQIFKFLETKLPENHERCPGIFTGLFVPELFFKLFRDTPWSDWYLFDPKDAGDLERLYGEEFEREYYRLVTAGKFCGRVSIKSLMFSIVNCAVKAGSPFILLKEACNAHFWRDLQGEAMNAANLCAEVLQPSRKSVATCNLANICLPRCLVNAPLAVRAQRADTQGDELLLALPRLSVTLPGEGAVGDGFSLARLRDATQCATFVVACSILQGSPTYDSRDMASMGLGVQGLADVFADLGWQYTDPPSRSLNKEIFEHMYFTALCTSSLIGLHTRKIFPGFKQSKYAGGWFHWHDWAGTDLSIPREIWSRLSERIVRDGLFNSQFIALMPTSGCAQVTGCSDAFYPFYANASTKVTNKEEALRPNRSFWRHVRLDDREALNLVGGRVSCLPEALRQRYLRFQTAFDYNQEDLIQMSRDRAPFVDQSQSHSLFLREEDAARASTLANLLVRSYELGLKTIMYYCRIEKAADLGVMECKASAALSVPREEQNERSPAEQMPPRPMEPAQVAGPVDIMSKGPGEGPGGWCVPGGLEVCYKYRQLFSEDDLLETDGFTERACESCQ
notes: Epstein-Barr virus ribonucleotide reductase large subunit BORF2, residues 1 to 826, codon-optimized gene; wild-type constructs match GenBank V01555.2; Dimer in the cryo-EM structure; The MBP tag was not detected in the maps; also called EBV RNR large subunit; wild-type BORF2; source: 293T, transfected; purified (amylose resin, SEC); not shown: MBP, N-terminal, kept
B3: MBP-BORF2 R39E/D26R (enzyme, Epstein-Barr virus (EBV), UniProt P03190 1-826, looked up)
chain: B2 chain with D26R, R39E
notes: Epstein-Barr virus BORF2, residues 1 to 826, codon-optimized gene; GenBank V01555.2; also called D26R/R39E BORF2; double mutant R39E/D26R; source: 293T, transfected; purified with amylose resin (SEC profiles); in lysate (co-IP); not shown: MBP, N-terminal, kept
B4: MBP-BORF2 D26R (enzyme, Epstein-Barr virus (EBV), UniProt P03190 1-826, looked up)
chain: B2 chain with D26R
notes: Epstein-Barr virus BORF2, residues 1 to 826, codon-optimized gene; GenBank V01555.2; source: 293T, transfected; purified with amylose resin (SEC profiles); in lysate (co-IP); not shown: MBP, N-terminal, kept

The target in the data set “MBP-BORF2 (1 to 826)” is B2. Kind of data set: BLI; Octet RED; A3-mycHis proteins loaded on Ni-NTA biosensors (12.5 ug/ml A3Bctd and A3A, 8 ug/ml A3G); MBP-BORF2 200 to 6.25 nM; 20 mM tris-HCl (pH 8), 300 mM NaCl; 30°C; association 1200 s, dissociation 1800 s; 1:2 binding model. The settings on record: both partners purified.
The target in the data set “A3Bctd (193-382)-mycHis” is B1. Kind of data set: SEC; BORF2 and A3Bctd purified individually with affinity resins, mixed with excess A3Bctd, run on SEC; SDS-PAGE of the fractions of the major peak; 20 mM tris-HCl (pH 8), 150 mM NaCl. Conditions: both partners purified. In general terms: SEC sorts molecules by how far they enter the pores of the column.
Data set [1] deals with the molecule itself. In words: cryo-EM structure; MBP-BORF2 (after amylose resin) mixed with excess purified A3Bctd-mycHis, complex isolated by SEC in 20 mM tris-HCl (pH 8), 150 mM NaCl, 1 mM TCEP; dimeric classes, C2, focused refinement.
Data set [2] concerns the molecule itself. In words: SEC; MBP-BORF2 and mutant derivatives purified with amylose resin; approximately 150 ug of each on S200 Increase in 10 mM tris-HCl (pH 8), 150 mM NaCl; self-association (dimer to monomers).

Usually Kd stands for a measure of binding affinity in units of concentration. A lower Kd goes with tighter binding. As a reminder, the stoichiometry N is a count of units in the complex or per binding partner.

A3Bctd (193-382)-mycHis, sequence (Q9UH17 193-382): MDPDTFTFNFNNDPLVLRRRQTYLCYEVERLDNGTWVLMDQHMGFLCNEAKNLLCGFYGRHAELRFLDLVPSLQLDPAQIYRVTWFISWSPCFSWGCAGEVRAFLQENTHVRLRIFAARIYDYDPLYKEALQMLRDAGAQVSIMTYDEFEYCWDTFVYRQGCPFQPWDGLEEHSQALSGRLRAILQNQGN

B1 yielded a Kd with MBP-BORF2 (1 to 826) of approximately 1 nM.

As to B2, the “stoichiometry N” value with A3Bctd (193-382)-mycHis came to 1; in data set [1], 2.

On to B3, for which the binding result in data set [2] is reported as “binds”.

With B4, the binding result in data set [2] is on record as “binds”.
